Assay [1] concerns the target kappa myeloma antigen (KMA) (human). As to the kind of experiment: cell-based or functional assay.
Assay [2] deals with Fc-receptors. As to the kind of experiment: cell-based or functional assay.

In assay [1], “KM.CAR_h_28TM_41BBz (from UniProt P10747 153-179; Q07011 214-255) (receptor)” gave a CAR expression (GFP) in culture with JJN3 of 17% and an expansion of CAR T-cell culture with JJN3 of 5 fold.

“KM.CAR_8a_28TM_41BBz (from UniProt P01732 138-182; P10747 153-179; Q07011 214-255) (receptor)”: in assay [1], the CAR expression (GFP) in culture in the presence of JJN3 stood at 5% and the expansion of CAR T-cell culture in the presence of JJN3 was 8 fold.

The substance KM.CAR-hCH2CH3-28z (receptor) had an enrichment of CAR expressing T-cells in culture with PBMC alone (% of CD3+ T-cells) in assay [2] of 28.

(Values after US20220193232A1.)
